Three molecules from patent US20150165067A1 (Eli Lilly, published 2015) can be followed below.

Experiment [1] addresses human FGFR3 Y373C, endogenous on KMS-11 multiple myeloma cells (human) (UniProt P22607). The experiment is described as follows: flow cytometry, 15 µg/mL Alexa488-labeled Antibody 1 on KMS-11 cells, quantified with Quantum Simply Cellular beads.
Experiment [2] has as its target human FGFR3 S249C, endogenous on UMUC-14 bladder tumor cells (human) (UniProt P22607). The experiment is described as follows: cell-based or functional assay.
Experiment [3] concerns the target human FGFR3 on RT-112 bladder tumor cells (wild type and FGFR3-TACC3 fusion receptors) (human) (UniProt P22607). The experiment is described as follows: cell-based or functional assay.
The target of experiment [4] is FGFR3-TACC3 fusion on RT-4 bladder tumor cells (TACC3 exon-4) (human, UniProt Q9Y6A5 140-838, limits assumed). Kind of experiment: cell-based or functional assay.
In experiment [5] the target is human FGFR3 on RT-112 bladder tumor cells (wild type and FGFR3-TACC3 fusion receptors) (human) (UniProt P22607). Kind of experiment: flow cytometry, 15 µg/mL Alexa488-labeled Antibody 1 on RT-112 cells, quantified with Quantum Simply Cellular beads. A general note: A flow cytometer gives signals particle by particle.
In experiment [6] the target is human FGFR3 wild type, endogenous on tumor cell lines (BFTC-905, KU-19-19, UMUC-3) (human) (UniProt P22607). The experiment is described as follows: flow cytometry, 15 µg/mL Alexa488-labeled Antibody 1 on BFTC-905 cells, quantified with Quantum Simply Cellular beads.
Experiment [7] concerns the target human FGFR3 S249C, endogenous on UMUC-14 bladder tumor cells (human) (UniProt P22607). Kind of experiment: flow cytometry, 15 µg/mL Alexa488-labeled Antibody 1 on UMUC-14 cells, quantified with Quantum Simply Cellular beads.
Experiment [8] has as its target human FGFR3 wild type, endogenous on tumor cell lines (BFTC-905, KU-19-19, UMUC-3) (human) (UniProt P22607). The experiment is described as follows: flow cytometry, 15 µg/mL Alexa488-labeled Antibody 1 on KU-19-19 cells, quantified with Quantum Simply Cellular beads.
For experiment [9], the target named is T1, human FGFR3 on RT-112 bladder tumor cells (wild type and FGFR3-TACC3 fusion receptors) (human, UniProt P22607 23-806). Kind of experiment: cell-based or functional assay.
Experiment [10] addresses human FGFR3 wild type, endogenous on tumor cell lines (BFTC-905, KU-19-19, UMUC-3) (human, UniProt P22607 23-806). The experiment is described as follows: cell-based or functional assay.
The target in experiment [11] is T2, human FGFR3(IIIb)-Fc (human, UniProt P22607-2 23-377, limits assumed).
T2 construct: Coated on the MSD plate; not shown: Fc part
T2 sequence (looked up): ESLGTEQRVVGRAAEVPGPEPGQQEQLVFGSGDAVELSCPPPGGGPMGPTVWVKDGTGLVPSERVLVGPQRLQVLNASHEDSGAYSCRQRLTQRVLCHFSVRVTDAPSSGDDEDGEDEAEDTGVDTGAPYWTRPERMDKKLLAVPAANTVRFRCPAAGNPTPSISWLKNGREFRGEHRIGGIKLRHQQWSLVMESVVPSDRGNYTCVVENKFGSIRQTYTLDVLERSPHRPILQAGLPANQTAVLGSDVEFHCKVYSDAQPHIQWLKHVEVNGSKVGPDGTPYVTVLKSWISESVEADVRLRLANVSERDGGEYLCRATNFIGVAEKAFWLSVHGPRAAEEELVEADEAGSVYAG
The experiment is described as follows: MSD electrochemiluminescence plate assay: blocking of ruthenium-labeled FGF1 (1 ug/mL, with heparin) binding to coated human FGFR3(IIIb)-Fc.

Experiment [12] has as its target T3, huFGFR3(IIIb), immobilized receptor (human, UniProt P22607-2 23-377, limits assumed).
T3 construct: Amine-coupled to a CM5 chip; also called human FGFR3(IIIb)
T3 sequence (looked up): T2 sequence (looked up)
Kind of experiment: SPR, Biacore T200, 25 C, huFGFR3(IIIb) amine-coupled on CM5 chip, Conjugate 1 as analyte, 1:1 model, n=3. How it is done:
Use a CM5 chip containing immobilized receptor huFGFR3(IIIb) (generated using standard NHS-EDC amine coupling) on 2 flow cells. Prepare samples of Conjugate 1 by 2 fold serial dilutions starting at 60 nM, 6 dilutions total into running buffer. Immobilize receptor at 2.5 μg/mL (55 RU). Each analysis cycle consists of: (1) sample injection at 30 μL/min with 180 sec contact time, (2) dissociation by injection of buffer for 900 sec at 30 μL/min, (3) regeneration in a 0.5% solution of SDS contact time 30 sec at a flow rate of 40 μL/min. Process data using standard double-referencing and fit to a 1:1 binding model using Biacore® 2000 Evaluation software, version 4.1, to determine the association rate (kₒₙ, M⁻¹s⁻¹ units), dissociation rate (koff, s⁻¹ units), and Rmax (RU units). The equilibrium dissociation constant (KD) is calculated from the relationship of KD=koff/kₒₙ. KD is in molar units.
(In general: In SPR one partner is held on a chip, and binding of the other changes the refractive index at the surface.)

The target in experiment [13] is human FGFR3 on Kato-III gastric tumor cells (human, UniProt P22607 23-806). The experiment is described as follows: cell-based or functional assay.
Experiment [14] has as its target T4, human FGFR3(IIIb) WT on BaF3 cells (human, UniProt P22607 23-808). The experiment is described as follows: cell-based or functional assay.
The target in experiment [15] is T1, human FGFR3 on RT-112 bladder tumor …. Kind of experiment: cell-based or functional assay. This is another data set of the same source.
Experiment [16] has as its target T4, human FGFR3(IIIb) WT on BaF3 cells. Kind of experiment: cell-based or functional assay. This is another data set of the same source.
The target in experiment [17] is human FGFR3(IIIb) Y375C on BaF3 cells (human, UniProt P22607 23-808). Kind of experiment: cell-based or functional assay.
The target in experiment [18] is human FGFR3(IIIb) G372C on BaF3 cells (human, UniProt P22607 23-808). The experiment is described as follows: cell-based or functional assay.
The target of experiment [19] is human FGFR3(IIIb) S249C on BaF3 cells (human, UniProt P22607 23-808). The experiment is described as follows: cell-based or functional assay.
Experiment [20] has as its target human FGFR3(IIIb) R248C on BaF3 cells (human, UniProt P22607 23-808). The experiment is described as follows: cell-based or functional assay.
Experiment [21] has as its target T3, huFGFR3(IIIb), immobilized receptor. Kind of experiment: SPR (Biacore); the sentence names no antigen or format, the section is on immobilized huFGFR3(IIIb); naked Antibody 1, not Conjugate 1.

Where only a bound is given, the exact number is not on record here.

B1: Antibody 1-Alexa488 (antibody, human IgG1, lambda, V domains shown)
VH: EVQLVQSGAEVKKPGASVKVSCKASGYMFTSYGISWVRQAPGQGLEWMGWVSTYNGDTNYAQKFQGRVTVTTDTSTSTAYMELRSLRSEDTAVYYCARVLGYYDSIDGYYYGMDVWGQGTTVTVSS
VL: QSVLTQPPSLSVAPGKTATFTCGGNNIGDKSVHWYRQKPGQAPVLVMYLDTERPSGIPERMSGSNFGNTATLTITRVEAGDEADYYCQVWDSGSDHVVFGGGTKLTVLG
modifications: Alexa488 label (sites not given)
Take B1: the FGFR3 cell surface expression (ABC) was 120000 ABC in experiment [1]; 16000 ABC in experiment [5]; 11000 ABC in experiment [6]; 27000 ABC in experiment [7]; below 4000 ABC in experiment [8]. The molecule further had an internalization in UMUC-14 cells, cell-associated fluorescence by flow cytometry over 48 h (fold over control) in experiment [2] above 9. This molecule also returned an internalization in RT-112 cells, cell-associated fluorescence by flow cytometry over 48 h (fold over background) in experiment [3] of 7. For the same molecule, the “internalization in RT-4 cells, cell-associated fluorescence by flow cytometry over 48 h” value in [4] is around 7 fold over background.

B2: Conjugate 1 (antibody, human IgG1, lambda, V domains shown)
VH: B1 VH
VL: B1 VL
modifications: DM4 attached through the sulfo-SPDB linker to available lysine residues (positions not given); DAR 3.5 ± 0.5 for the whole antibody
notes: also called Antibody 1-sulfo-SPDB-DM4; the conjugate of the present invention
By IC50 is commonly meant the concentration needed to halve the response being measured. A word on the Kd: it is a measure of binding affinity in units of concentration. As a reminder, the koff is a measure of how fast the partners let go of each other. Lower therefore signals a long-lived complex. A word on the kon: it is the second-order rate constant of association. Low readings indicate slow association, high ones fast association. As to B2, the “Cytotoxicity Conjugate 1 IC50, RT-112 (bladder) cells, Cell Titer-Glo, 96 h” value in experiment [9] was 1.3 nM. Further, the “Cytotoxicity Conjugate 1 IC50, BFTC-905 (bladder) cells, Cell Titer-Glo, 96 h” value in experiment [10] is 2.7 nM. The molecule also had an IC50 in experiment [11] of 3.6 nM. Besides, in experiment [12], binding was put at a Kd of 0.823 nM, the koff worked out at 0.000187 s⁻¹ and the kon amounted to 227000 M⁻¹ s⁻¹. Also, the “cytotoxicity IC50 (nM), Kato-III cells” value in [13] was found to be 5.4 nM. Besides, the “cytotoxicity IC50 (nM), transfected Baf3-FGFR3(IIIb) cells” value in [14] came out at 2.5 nM. In addition, the “cytotoxicity IC50 (nM), RT112 cells” value in experiment [15] is 2.1 nM.

B3: Antibody 1 (antibody, human IgG1, lambda, V domains shown)
VH: B1 VH
VL: B1 VL
notes: Human monoclonal antibody with a lambda light chain; also called naked Antibody 1; anti-FGFR3 antibody
Take B3: the “IC50 for neutralizing FGF1 (51.6 nM)-induced 3H-thymidine incorporation in BaF3 cells” value came out at 4.2 nM in experiment [16]; 8.77 nM in [17]; 4.81 nM in [18]; 2.17 nM in [19]; 1.32 nM in experiment [20]. For the same molecule, the “IC50 for neutralizing FGF9 (34.72 nM)-induced 3H-thymidine incorporation in BaF3 cells” value in [16] was 0.4 nM; in experiment [17], 1.42 nM; in [19] it was 0.46 nM. For the same molecule, in experiment [21], the Kd was 0.13 nM.
